Consider seven molecules from patent publication US20210388102A1 (IMMUNOGEN, published 2021).

The chains are these.
T1: human ADAM9 (huADAM9) on cells (human, UniProt Q13443 206-819)
T1 construct: The pro-domain is said to be cleaved (Arg-205/Ala-206) in the mature protein; also called Cho-K/huADAM9; Cho-K/hu ADAM9.2
T1 sequence: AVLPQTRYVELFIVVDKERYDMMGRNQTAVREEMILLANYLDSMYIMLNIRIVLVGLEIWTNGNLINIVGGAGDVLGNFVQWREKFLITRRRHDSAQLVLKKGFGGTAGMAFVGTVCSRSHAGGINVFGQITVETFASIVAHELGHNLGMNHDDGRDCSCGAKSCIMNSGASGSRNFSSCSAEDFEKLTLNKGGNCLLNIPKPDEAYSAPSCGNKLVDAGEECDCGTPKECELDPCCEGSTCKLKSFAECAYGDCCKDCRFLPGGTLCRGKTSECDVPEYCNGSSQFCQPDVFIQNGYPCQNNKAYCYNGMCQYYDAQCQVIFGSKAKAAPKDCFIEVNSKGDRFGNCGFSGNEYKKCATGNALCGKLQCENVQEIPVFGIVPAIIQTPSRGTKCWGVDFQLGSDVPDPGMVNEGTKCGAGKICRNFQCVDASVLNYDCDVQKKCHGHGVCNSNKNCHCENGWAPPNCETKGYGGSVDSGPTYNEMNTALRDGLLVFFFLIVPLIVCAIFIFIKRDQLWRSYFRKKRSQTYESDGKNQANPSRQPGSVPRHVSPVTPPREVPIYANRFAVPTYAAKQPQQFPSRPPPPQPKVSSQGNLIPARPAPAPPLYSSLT

T2: cynomolgus monkey ADAM9 (cynoADAM9) on cells (cynomolgus monkey, UniProt Q13443 206-819 (human entry))
T2 construct: also called Cho-K/cynoADAM9 clone 2; Cho-K/cynoADAM9 clone #16
T2 chain: T1 sequence with V69A, Q130H, G421D, V441I, S521R, G546V, A569P

T3: His-tagged soluble human ADAM9 (shADAM9-His) (human, UniProt Q13443 206-697)
T3 construct: Contains an extracellular portion of human ADAM9; also called huADAM9-His; His peptide-tagged soluble huADAM9
T3 sequence: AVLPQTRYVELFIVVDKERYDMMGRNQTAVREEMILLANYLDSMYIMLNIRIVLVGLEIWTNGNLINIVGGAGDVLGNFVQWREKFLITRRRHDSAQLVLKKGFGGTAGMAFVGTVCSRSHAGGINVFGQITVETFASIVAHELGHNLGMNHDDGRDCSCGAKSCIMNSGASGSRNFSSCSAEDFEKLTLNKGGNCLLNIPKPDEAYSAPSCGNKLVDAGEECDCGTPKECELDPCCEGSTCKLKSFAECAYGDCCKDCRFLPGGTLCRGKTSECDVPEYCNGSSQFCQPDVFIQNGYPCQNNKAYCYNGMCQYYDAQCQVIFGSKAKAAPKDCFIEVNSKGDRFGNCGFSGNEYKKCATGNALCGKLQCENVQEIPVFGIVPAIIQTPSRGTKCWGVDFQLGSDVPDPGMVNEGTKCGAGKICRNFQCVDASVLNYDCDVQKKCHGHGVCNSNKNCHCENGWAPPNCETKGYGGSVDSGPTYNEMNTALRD

B1: hMAB-A(2C.2)-DGN549 (antibody, human IgG1, kappa, V domains shown)
VH: EVQLVESGGGLVKPGGSLRLSCAASGFTFSSYWMHWVRQAPGKGLEWVGEIIPIFGHTNYNEKFKSRFTISLDNSKNTLYLQMGSLRAEDTAVYYCARGGYYYYPRFGWLDYWGQGTTVTVSS
VL: DIVMTQSPDSLAVSLGERATISCKASQSVDYSGDSYMNWYQQKPGQPPKLLIYAASDLESGIPARFSGSGSGTDFTLTISSLEPEDFATYYCQQSHEDPFTFGQGTKLEIKR
modifications: lysine-linked DGN549, sites not given; DGN549-L (compound D2) linked to lysine residues of the antibody, sites not given; average 2.8 mol DGN549/mol antibody
B2: hMAB-A(2C.2)-sSPDB-DM4 (antibody, human IgG1, kappa, V domains shown)
VH: B1 VH
VL: B1 VL
modifications: lysine-linked DM4, sites not given; DM4 linked through sulfo-SPDB to lysine residues of the antibody, sites not given; average 3.2 mol DM4/mol antibody
B3: chMAB-A-sSPDB-DM4 (antibody, V domains shown)
VH: QVQLQQPGAELVKPGASVKLSCKASGYTFTSYWMHWVKQRPGQGLEWIGEIIPINGHTNYNEKFKSKATLTLDKSSSTAYMQLSSLASEDSAVYYCARGGYYYYGSRDYFDYWGQGTTLTVSS
VL: DIVLTQSPASLAVSLGQRATISCKASQSVDYDGDSYMNWYQQIPGQPPKLLIYAASDLESGIPARFSGSGSGTDFTLNIHPVEEEDAATYYCQQSHEDPFTFGGGTKLEIK
modifications: lysine-linked DM4, sites not given; DM4 linked through sulfo-SPDB to lysine residues of the antibody, sites not given; average 3.4 mol DM4/mol antibody
B4: chMAB-A-DGN549 (antibody, V domains shown)
VH: B3 VH
VL: B3 VL
modifications: lysine-linked DGN549, sites not given; DGN549-L (compound D2) linked to lysine residues of the antibody, sites not given; average 2.7 mol DGN549/mol antibody
B5: hMAB-A(2I.2)-DGN549 (antibody, human IgG1, kappa)
heavy: not shown
light: DIVMTQSPDSLAVSLGERATISCKASQSVDYSGDSYMNWYQQKPGQPPKLLIYAASDLESGIPARFSGSGSGTDFTLTISSLEPEDFATYYCQQSHEDPFTFGQGTKLEIKRTVAAPSVFIFPPSDEQLKSGTASVVCLLNNFYPREAKVQWKVDNALQSGNSQESVTEQDSKDSTYSLSSTLTLSKADYEKHKVYACEVTHQGLSSPVTKSFNRGEC
modifications: lysine-linked DGN549, sites not given; DGN549-L (compound D2) linked to lysine residues of the antibody, sites not given; average 2.8 mol DGN549/mol antibody
B6: hMAB-A (2B.2) (antibody, V domains shown)
VH: B1 VH with P105I, R106G, F107K, W109V
VL: DIVMTQSPDSLAVSLGERATISCKASQSVDYSGDSYMNWYQQKPGQPPKLLIYAASDLESGIPARFSGSGSGTDFTLTISSLEPEDFATYYCQQSHEDPFTFGQGTKLEIK
notes: also called MAB-A VH(2B); MAB-A VH(2B.2)
B7: hMAB-A (2D.2) (antibody, V domains shown)
VH: B1 VH with P105T, R106G, F107K, W109V
VL: B6 VL
notes: also called MAB-A VH(2D); MAB-A VH(2D.2)

Changes are numbered by the printed parent chain.

The first assay deals with T1, human ADAM9 (huADAM9) on cells. Kind of assay: FACS, 300-19 cells expressing human ADAM9. In general terms: Flow cytometry measures light scatter and fluorescence of single cells or particles in a stream.
Procedure: (§1) To evaluate the consequence of conjugation on antigen binding, the relative binding affinity of each anti-ADAM9 immunoconjugate and its respective unconjugated antibody to ADAM9 was determined by FACS analysis on 300-19 cells ectopically-expressing either human ADAM9 or cynomolgus ADAM9. Briefly, the ADAM9-expressing 300-19 cells were incubated with dilution series of anti-ADAM9 antibodies or immunoconjugates for 30 min @ 4° C. in FACS buffer (PBS, 0.1% BSA, 0.01% NaN₃), Samples were then washed and incubated with fluorescently-labeled secondary antibody for 30 minutes at 4° C. The normalized mean of fluorescence intensity at each concentration was plotted and the EC50 of binding was calculated using a nonlinear regression analysis (GraphPad Prims 4.0).
One may read the EC50 as the concentration giving half of the maximal effect. Molecule B1 displayed an EC50 of 1.99 nM.

On to B2, for which a half-maximal response (EC50) required 1.5 nM.

B3 came in with an EC50 of 0.95 nM.

Molecule B4 gave an EC50 of 1.24 nM.

B5 displayed an EC50 of 2.25 nM.

The target in a further assay is T2, cynomolgus monkey ADAM9 (cynoADAM9) on …. Kind of assay: FACS, 300-19 cells expressing cynomolgus ADAM9.
Procedure: as §1
In turn, B1 came in with a concentration giving a half-maximal response (EC50) of 5.6 nM.

B2 displayed an EC50 of 4.4 nM.

Molecule B3 returned an EC50 of 275 nM.

In the case of B4, it took 153 nM to reach a half-maximal effect (EC50).

As for B5, it took 6.6 nM to reach a half-maximal effect (EC50).

Another assay has as its target T3, His-tagged soluble human ADAM9 …. The experiment in a line: SPR (BIACORE), antibody captured, huADAM9-His in flow. Background: In SPR one partner is held on a chip, and binding of the other changes the refractive index at the surface.
Procedure: The kinetics of binding were determined via BIACORE® analysis binding (normalized 1:1 Langmuir binding model).
One may read the Kd as a measure of binding affinity in units of concentration. For orientation: koff means the first-order rate constant of dissociation. What is called kon is a measure of how fast the partners come together. With B6, binding was put at a Kd of 0.6 nM, the koff came out at 0.00039 s⁻¹ and the kon stood at 610000 M⁻¹ s⁻¹.

In the case of B7, the Kd was 0.8 nM, the koff was determined as 0.00058 s⁻¹ and the kon was found to be 690000 M⁻¹ s⁻¹.

The target in the next assay is T2, cynomolgus monkey ADAM9 (cynoADAM9) on …. The experiment in a line: FACS, EC50 on 300-19 cynoADAM9 cells over EC50 on 300-19 huADAM9 cells.
Procedure: as §1
With B1, the “cyno/human (ratio of EC50)” value was 3.

B2: the “cyno/human (ratio of EC50)” value came out at 3.

With B3, the “cyno/human (ratio of EC50)” value is 290.

As to B4, the “cyno/human (ratio of EC50)” value turned out to be 123.

As for B5, the “cyno/human (ratio of EC50)” value worked out at 3.
